Measured values: PMC11455619

Biological target: septin-7 (commercially purified, LSBio) (UniProt Q16181)
Assay: MST

Chain of septin-7 (commercially purified, LSBio) (Q16181 whole entry): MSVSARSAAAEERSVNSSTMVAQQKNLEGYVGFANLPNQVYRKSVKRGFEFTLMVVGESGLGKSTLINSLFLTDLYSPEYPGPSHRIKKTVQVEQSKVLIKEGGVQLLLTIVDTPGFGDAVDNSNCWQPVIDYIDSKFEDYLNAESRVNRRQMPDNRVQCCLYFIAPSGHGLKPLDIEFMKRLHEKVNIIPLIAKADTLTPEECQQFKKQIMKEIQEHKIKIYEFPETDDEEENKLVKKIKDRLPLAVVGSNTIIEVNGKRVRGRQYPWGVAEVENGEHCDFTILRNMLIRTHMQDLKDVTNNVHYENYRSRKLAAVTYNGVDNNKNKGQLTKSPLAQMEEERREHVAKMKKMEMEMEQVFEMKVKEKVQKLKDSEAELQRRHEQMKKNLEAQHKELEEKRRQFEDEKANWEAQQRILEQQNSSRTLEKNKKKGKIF

- Kd: 7.48 µM
Substance: SOD1 trimer, HG trimer-stabilising mutant (printed as H46G-G108H and as H46Q-G108H) (from UniProt P00441 1-154) (enzyme)
